Data reported in US6696409 (PRINCE OF WALES MEDICAL RESEARCH INSTITUTE LIMITED POWMR, dated 2004).

T1: human neuropeptide Y Y2 receptor on SMS-MSN cells (human, UniProt P49146 1-381)
T1 construct: whole, on cells; also called NPY Y2 receptor; SMS-MSN (Y2)
T1 sequence (looked up): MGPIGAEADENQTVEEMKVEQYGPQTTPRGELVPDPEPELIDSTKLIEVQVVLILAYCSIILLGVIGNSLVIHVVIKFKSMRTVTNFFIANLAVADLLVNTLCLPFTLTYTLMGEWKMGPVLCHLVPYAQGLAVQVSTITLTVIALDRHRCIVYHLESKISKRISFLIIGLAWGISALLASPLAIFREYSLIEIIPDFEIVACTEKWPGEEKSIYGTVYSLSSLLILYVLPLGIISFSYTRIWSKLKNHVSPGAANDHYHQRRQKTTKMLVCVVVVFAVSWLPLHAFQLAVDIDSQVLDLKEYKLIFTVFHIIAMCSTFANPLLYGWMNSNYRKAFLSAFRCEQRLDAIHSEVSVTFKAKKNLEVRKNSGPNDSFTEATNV

T2: human neuropeptide Y Y1 receptor on SK-N-MC cells (human, UniProt P25929 1-384)
T2 construct: whole, on cells; also called NPY Y1 receptor; SK-N-MC (Y1)
T2 sequence (looked up): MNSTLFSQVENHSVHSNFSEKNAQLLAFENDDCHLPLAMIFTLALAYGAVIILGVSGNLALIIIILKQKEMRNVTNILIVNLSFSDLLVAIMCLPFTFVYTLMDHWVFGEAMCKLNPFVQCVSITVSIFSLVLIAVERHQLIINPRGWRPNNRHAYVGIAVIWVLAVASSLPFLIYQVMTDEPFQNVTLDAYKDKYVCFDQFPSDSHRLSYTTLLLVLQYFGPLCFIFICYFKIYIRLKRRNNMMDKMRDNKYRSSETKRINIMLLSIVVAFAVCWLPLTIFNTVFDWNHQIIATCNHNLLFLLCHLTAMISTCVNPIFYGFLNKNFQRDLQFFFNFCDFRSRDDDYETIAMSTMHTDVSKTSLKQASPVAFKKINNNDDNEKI

B1: Ac[L28,L31]NPY24-36 (peptide)
peptide: Ac-LRHYLNLLTRQRY-NH2
B2: Ac[A24,A27,L28,L31]NPY24-36 (peptide)
peptide: Ac-ARHALNLLTRQRY-NH2
notes: also called Ac[Ala24, Ala27, Leu28, Leu31]NPY(24-36)
B3: Ac[A24,L28,L31]NPY24-36 (peptide)
peptide: Ac-ARHYLNLLTRQRY-NH2
B4: Ac[A25,L28,L31]NPY24-36 (peptide)
peptide: Ac-LAHYLNLLTRQRY-NH2
B5: Ac[A25,R28,L31]NPY24-36 (peptide)
peptide: Ac-LAHYRNLLTRQRY-NH2
B6: Ac[A26,L28,L31]NPY24-36 (peptide)
peptide: Ac-LRAYLNLLTRQRY-NH2
B7: Ac[A27,L28,L31]NPY24-36 (peptide)
peptide: Ac-LRHALNLLTRQRY-NH2
B8: Ac[A28,L31]NPY24-36 (peptide)
peptide: Ac-LRHYANLLTRQRY-NH2
B9: Ac[L28,A29,L31]NPY24-36 (peptide)
peptide: Ac-LRHYLALLTRQRY-NH2
B10: Ac[L28,A30,L31]NPY24-36 (peptide)
peptide: Ac-LRHYLNALTRQRY-NH2
B11: Ac[L28,A31]NPY24-36 (peptide)
peptide: Ac-LRHYLNLATRQRY-NH2
B12: Ac[L28,L31,A32]NPY24-36 (peptide)
peptide: Ac-LRHYLNLLARQRY-NH2
B13: Ac[A24,26,27,30,31,L28]NPY24-36 (peptide)
peptide: Ac-ARAALNAATRQRY-NH2
B14: Ac[A26,27,L28,31]NPY24-36 (peptide)
peptide: Ac-LRAALNLLTRQRY-NH2
B15: Neuropeptide Y (ligand)
peptide: not shown
B16: AcNPY24-36 (peptide, UniProt P01303 52-64, looked up)
peptide: Ac-LRHYINLITRQRY-NH2

Tests used:
[1] = target: Y1 receptors in anaesthetised rats (rat); assay: cell-based or functional assay
[2] = target: Y2-like receptors in anaesthetised rats (rat); assay: cell-based or functional assay
[3] = target: T1, human neuropeptide Y Y2 receptor on …; assay: competition with 30 pM [125I]NPY on SMS-MSN cells (human Y2), filtration
[4] = target: T2, human neuropeptide Y Y1 receptor on …; assay: competition with 30 pM [125I]NPY on SK-N-MC cells (human Y1), filtration

Binder | Increase in BP (rel to NPY), anaesthetised rats [1] | EC50 of the change in pulse interval (PI %), vagal stimulation in anaesthetised rats [2] [nmol] | IC50 [3] [nM] | IC50 [4] [nM]
B1 | 0 relative to NPY | 3.16 |  | 
B2 | 0 relative to NPY | 0.89 | 0.03 | 
B3 | 0 relative to NPY | 0.46 | 19.2 | 
B4 | 0 relative to NPY | 1.58 | 2 | 
B5 | 0 relative to NPY | 1.95 | 0.1 | 692
B6 | 0 relative to NPY | 1.26 | 63.1 | 
B7 | 0 relative to NPY | 0.52 | 0.13 | 
B8 | 0 relative to NPY | 2.75 | 12.6 | 
B9 | 0 relative to NPY | 1.48 | 0.05 | 
B10 | 0 relative to NPY | 0.39 | 6.31 | 
B11 | 0 relative to NPY | 0.78 | 0.06 | 
B12 | 0 relative to NPY | 6.46 | 2.51 | 
B13 | 0 relative to NPY | 0.56 | 3.16 | 
B14 | 0 relative to NPY | 1 |  | 
B15 | 1 relative to NPY |  |  | 
B16 | 0 relative to NPY |  |  | 
